Data on eleven molecules can be found in paper PMC5986005, “Catalysis of transthiolacylation in the active centers of dihydrolipoamide acyltransacetylase components of 2‐oxo acid dehydrogenase complexes” (FEBS Open Bio, 2018).

Changes are numbered by the printed parent chain. In names and notes the source's numbering stands.

The term Kd denotes the equilibrium constant for the complex coming apart. Low values mean tighter binding, high ones weaker binding. As a reminder, the Km is the concentration of substrate that gives half-maximal velocity. The term kcat denotes the number of substrate molecules converted per active site and unit of time at saturation. Usually kcat/Km stands for the turnover number divided by the Michaelis constant.

The target of one series is T1, E2o (Escherichia coli, UniProt P0AFG6, H376W).
T1 construct: gene sucB; full-length E2o alone, pCA24N plasmid, expressed in E. coli, PEG precipitation and size exclusion
Briefly: intrinsic Trp fluorescence quenching (ex […] nm). In kind it is binding.

Series [1] addresses T2, E1o (with LDo as acyl acceptor) (Escherichia coli, UniProt P0AFG3).
T2 construct: gene sucA; E1o purified on Ni-Sepharose; acceptor is the separate E2o lipoyl domain (residues 1-105, His6-tagged, lipoylated in vitro); with Dihydrolipoyllysine-residue succinyltransferase component of 2-oxoglutarate dehydrogenase complex
Briefly: reductive acylation of LDo, ESI FT-MS. In kind it is biochemical.

For series [2], the target named is T3, CDo (E2o catalytic domain) (Escherichia coli, UniProt P0AFG6).
T3 construct: gene sucB; separate dihydro-LDo (residues 1-105) as acyl acceptor
T3 sequence (P0AFG6 94-405): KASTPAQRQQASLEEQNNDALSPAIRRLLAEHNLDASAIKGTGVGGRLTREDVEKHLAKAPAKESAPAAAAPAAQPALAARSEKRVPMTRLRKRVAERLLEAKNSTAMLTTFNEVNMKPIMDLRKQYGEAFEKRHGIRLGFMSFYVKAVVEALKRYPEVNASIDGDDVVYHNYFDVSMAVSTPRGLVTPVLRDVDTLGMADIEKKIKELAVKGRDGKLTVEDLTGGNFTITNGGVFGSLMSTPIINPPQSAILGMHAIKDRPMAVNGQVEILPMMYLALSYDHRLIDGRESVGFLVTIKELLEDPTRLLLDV
Briefly: reverse succinyl transfer to dihydro-LDo, ESI FT-MS. In kind it is biochemical. The conditions noted are these: 40 μM dihydro-LDo, 0.10 mM TCEP, 0.15 mM succinyl-CoA, 35 mM NH4HCO3 pH 7.5, 30 °C.

Substrate in series [3]: CC(C)(COP(=O)(O)OP(=O)(O)OC[C@H]1O[C@@H](n2cnc3c(N)ncnc32)[C@H](O)[C@@H]1OP(=O)(O)O)[C@@H](O)C(=O)NCCC(=O)NCCS
Briefly: purified protein. It is filed as biochemical, Escherichia coli. The conditions noted are these: 2-oxoglutarate, NAD+, ThDP, Mg2+, kcat of overall reaction.

Substrate in series [4]: O=C(O)CCC(=O)C(=O)O
In words: purified protein. The conditions noted are these: reassembled complex with wild-type E2o; CoA, NAD+, ThDP, Mg2+; kcat of overall reaction. It is filed as biochemical, Escherichia coli.

Where [5] appears, read: reassembled complex with wild-type E2o.

As to `CC(C)(COP(=O)(O)OP(=O)(O)OC[C@H]1O[C@@H](n2cnc3c(N)ncnc32)[C@H](O)[C@@H]1OP(=O)(O)O)[C@@H](O)C(=O)NCCC(=O)NCCS` [CoA, coenzyme A], on E2o, the dissociation constant (Kd) was found to be 61.2 µM.

For `CC(=O)C(=O)O` [pyruvate], in series [1] (LDo as acyl acceptor, ThDP, Mg2+), the “reductive acylation of LDo, ESI FT-MS” value was “could also be used by E1o as substrates for reductive acylation of LDo”.

Turning to `CC(C)(COP(=O)(O)OP(=O)(O)OC[C@H]1O[C@@H](n2cnc3c(N)ncnc32)[C@H](O)[C@@H]1OP(=O)(O)O)[C@@H](O)C(=O)NCCC(=O)NCCSC(=O)CCC(=O)O` [succinyl-CoA, succinyl-coenzyme A], in series [2], the “reverse succinyl transfer to dihydro-LDo, ESI FT-MS” value was “rate of succinyl transfer from succinyl‐CoA to the dihydro‐LDo”. This molecule displayed a dissociation constant Kd at E2o of 47 µM.

Regarding `O=C(O)CCCC(=O)C(=O)O` [OA, 2-oxoadipate], the “reductive acylation of LDo, ESI FT-MS” value in series [1] (100 μM LDo, 0.1 mM ThDP, 0.5 mM MgCl2, 35 mM NH4HCO3 pH 7.5, 2.5 mM OA) is listed as “could also be used by E1o as substrates for reductive acylation of LDo”.

B1: OGDHc assembled from E1o, E2o and E3 (CoA site on E2o) (Escherichia coli K-12; H376W) (protein)
chain: SSVDILVPDLPESVADATVATWHKKPGDAVVRDEVLVEIETDKVVLEVPASADGILDAVLEDEGTTVTSRQILGRLREGNSAGKETSAKSEEKASTPAQRQQASLEEQNNDALSPAIRRLLAEHNLDASAIKGTGVGGRLTREDVEKHLAKAPAKESAPAAAAPAAQPALAARSEKRVPMTRLRKRVAERLLEAKNSTAMLTTFNEVNMKPIMDLRKQYGEAFEKRHGIRLGFMSFYVKAVVEALKRYPEVNASIDGDDVVYHNYFDVSMAVSTPRGLVTPVLRDVDTLGMADIEKKIKELAVKGRDGKLTVEDLTGGNFTITNGGVFGSLMSTPIINPPQSAILGMHAIKDRPMAVNGQVEILPMMYLALSYDWRLIDGRESVGFLVTIKELLEDPTRLLLDV
notes: components expressed separately in E. coli (pCA24N in AG1 for E1o and E2o) and reassembled at E1o:E2o:E3 mass ratio 1:1:1; with 2-oxoglutarate dehydrogenase E1 component; Dihydrolipoyl dehydrogenase
Consider B1, for which, in “purified protein [3]” (reassembled complex), the Km is 13.3 µM and the kcat amounted to 28.8 s⁻¹.

B2: OGDHc assembled from E1o, E2o and E3 (CoA site on E2o) (Escherichia coli K-12; H376G) (protein)
chain: B1 chain with W375G
notes: as for B1
With B2, in “purified protein [3]” (reassembled complex), the Michaelis constant (Km) is 20.6 µM and the turnover number (kcat) was found to be 5.76 s⁻¹.

B3: OGDHc assembled from E1o, E2o and E3 (CoA site on E2o) (Escherichia coli K-12) (protein)
chain: B1 chain with W375H
notes: as for B1
In the case of B3, in the series “purified protein [3]” (setting [5]), the Km amounted to 20.4 µM and the catalytic constant (kcat) worked out at 48.0 s⁻¹.

B4: OGDHc assembled from E1o, E2o and E3 (CoA site on E2o) (Escherichia coli K-12; T324A) (protein)
chain: B1 chain with T323A, W375H
notes: as for B1
Consider B4, for which, in the series “purified protein [3]” (reassembled complex), the Michaelis constant (Km) amounted to 23.3 µM and the kcat was 21.7 s⁻¹.

B5: OGDHc assembled from E1o, E2o and E3 (CoA site on E2o) (Escherichia coli K-12; D380A) (protein)
chain: B1 chain with W375H, D379A
notes: as for B1
With B5, in the series “purified protein [3]” (reassembled complex), the Km was determined as 21.1 µM and the kcat came to 4.6 s⁻¹.

B6: OGDHc assembled from E1o, E2o and E3 (CoA site on E2o) (Escherichia coli K-12; R377A) (protein)
chain: B1 chain with W375H, R376A
notes: as for B1
For the molecule B6, in the series “purified protein [3]” (reassembled complex), the Km worked out at 19.8 µM and the kcat was 27.0 s⁻¹.

B7: OGDHc assembled from E1o, E2o and E3 (2-oxoglutarate site on E1o) (Escherichia coli K-12) (protein)
chain: MQNSALKAWLDSSYLSGANQSWIEQLYEDFLTDPDSVDANWRSTFQQLPGTGVKPDQFHSQTREYFRRLAKDASRYSSTISDPDTNVKQVKVLQLINAYRFRGHQHANLDPLGLWQQDKVADLDPSFHDLTEADFQETFNVGSFASGKETMKLGELLEALKQTYCGPIGAEYMHITSTEEKRWIQQRIESGRATFNSEEKKRFLSELTAAEGLERYLGAKFPGAKRFSLEGGDALIPMLKEMIRHAGNSGTREVVLGMAHRGRLNVLVNVLGKKPQDLFDEFAGKHKEHLGTGDVKYHMGFSSDFQTDGGLVHLALAFNPSHLEIVSPVVIGSVRARLDRLDEPSSNKVLPITIHGDAAVTGQGVVQETLNMSKARGYEVGGTVRIVINNQVGFTTSNPLDARSTPYCTDIGKMVQAPIFHVNADDPEAVAFVTRLALDFRNTFKRDVFIDLVCYRRHGHNEADEPSATQPLMYQKIKKHPTPRKIYADKLEQEKVATLEDATEMVNLYRDALDAGDCVVAEWRPMNMHSFTWSPYLNHEWDEEYPNKVEMKRLQELAKRISTVPEAVEMQSRVAKIYGDRQAMAAGEKLFDWGGAENLAYATLVDEGIPVRLSGEDSGRGTFFHRHAVIHNQSNGSTYTPLQHIHNGQGAFRVWDSVLSEEAVLAFEYGYATAEPRTLTIWEAQFGDFANGAQVVIDQFISSGEQKWGRMCGLVMLLPHGYEGQGPEHSSARLERYLQLCAEQNMQVCVPSTPAQVYHMLRRQALRGMRRPLVVMSPKSLLRHPLAVSSLEELANGTFLPAIGEIDELDPKGVKRVVMCSGKVYYDLLEQRRKNNQHDVAIVRIEQLYPFPHKAMQEVLQQFAHVKDFVWCQEEPLNQGAWYCSQHHFREVIPFGASLRYAGRPASASPAVGYMSVHQKQQQDLVNDALNVE
notes: components expressed separately in E. coli (pCA24N in AG1 for E1o and E2o; E1o purified on Ni-Sepharose) and reassembled at E1o:E2o:E3 mass ratio 1:1:1; with Dihydrolipoyllysine-residue succinyltransferase component of 2-oxoglutarate dehydrogenase complex; Dihydrolipoyl dehydrogenase
Regarding B7, in “purified protein [4]”, the Km worked out at 50 ± 11 µM, the catalytic constant (kcat) came to 48.0 s⁻¹ and the kcat/Km was 1.07e+06 M⁻¹ s⁻¹.
